Experimental findings from publication PMC8278045 are described below.

Common to all, as to experiment: affinity purification with mass spectrometry; GFP pull-down (µMACS/MultiMACS GFP Isolation Kit beads) from thylakoid membranes of GFP-labelled Syn7942 strains solubilised with 1% digitonin; label-free LC-MS/MS, abundances normalised to GFP, WT strain as control, triplicates
The target of assay [1] is PsaE of Photosystem I labelled with enhanced GFP (PSI–GFP) (Synechococcus elongatus PCC 7942) (UniProt Q31NL7).
Sequence of UniProt Q31NL7 (Q31NL7 whole entry): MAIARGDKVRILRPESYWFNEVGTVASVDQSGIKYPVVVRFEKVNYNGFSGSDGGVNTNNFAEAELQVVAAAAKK
The target in assay [2] is PsbB (CP47) of Photosystem II labelled with enhanced GFP (PSII–GFP) (Synechococcus elongatus PCC 7942) (UniProt P31094).
Sequence of UniProt P31094 (P31094 whole entry): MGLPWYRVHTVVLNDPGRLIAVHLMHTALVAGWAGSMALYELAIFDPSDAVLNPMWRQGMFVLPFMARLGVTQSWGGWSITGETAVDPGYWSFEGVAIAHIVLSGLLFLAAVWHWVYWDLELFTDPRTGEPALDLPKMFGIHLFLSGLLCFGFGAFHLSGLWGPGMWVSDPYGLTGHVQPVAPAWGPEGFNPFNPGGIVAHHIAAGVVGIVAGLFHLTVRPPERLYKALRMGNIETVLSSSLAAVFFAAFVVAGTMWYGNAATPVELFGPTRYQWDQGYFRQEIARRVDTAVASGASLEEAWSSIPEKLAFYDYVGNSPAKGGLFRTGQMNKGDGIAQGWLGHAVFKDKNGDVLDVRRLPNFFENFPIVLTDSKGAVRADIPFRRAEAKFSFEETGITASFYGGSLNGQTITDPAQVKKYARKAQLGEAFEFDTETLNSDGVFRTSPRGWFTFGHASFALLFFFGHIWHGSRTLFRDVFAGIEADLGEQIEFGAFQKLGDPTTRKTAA
Assay [3] deals with PetA of Cytochrome b6f labelled with enhanced GFP (Cyt b6f–GFP) (Synechococcus elongatus PCC 7942) (UniProt Q31NV8).
Sequence of UniProt Q31NV8 (Q31NV8 31-324): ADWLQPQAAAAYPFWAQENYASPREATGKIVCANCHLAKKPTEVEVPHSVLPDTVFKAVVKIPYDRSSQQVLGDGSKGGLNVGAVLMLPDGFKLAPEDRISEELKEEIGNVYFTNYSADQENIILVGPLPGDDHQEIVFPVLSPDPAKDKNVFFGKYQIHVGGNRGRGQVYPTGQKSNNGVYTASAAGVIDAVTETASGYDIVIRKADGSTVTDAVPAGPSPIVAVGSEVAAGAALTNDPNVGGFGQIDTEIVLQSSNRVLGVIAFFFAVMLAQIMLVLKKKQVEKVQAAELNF

Regarding “Cytochrome b6f (Cyt b6f) (from UniProt Q31KG3 1-37) (complex)”, the percent of PSI associated with Cyt b6f in assay [1] was found to be 0.3%. In addition, in assay [2], the percent of PSII associated with Cyt b6f came out at 1.98%.
With “Photosystem I (PSI) (from UniProt P0A421 1-139; P0A402 24-164; P0A426 5-83) (complex)”, in assay [3], the percent of Cyt b6f associated with PSI amounted to 4.1%. For the same substance, the percent of PSII associated with PSI in assay [2] came to 9.9%.
On to “Photosystem II (PSII) (from UniProt P31094 1-508; Q31M07 29-136; Q31LM9 31-167; Q31LS7 1-40) (complex)”, for which the percent of Cyt b6f associated with PSII in assay [3] was 2%. Also, the percent of PSI associated with PSII in assay [1] worked out at 1.72%.
